This experiment concerns the target TAG72 antigen (tumor associated glycoprotein-72). The experiment can be described thus: method not stated; scFv affinity toward TAG72 antigen.

As a reminder, the Kd is the constant that tells how readily two partners part at equilibrium. original humanized CC49 scFv (IDEC) gave a Kd of 33 nM.

The record behind these values is patent US20250257110A1.
